For this assay, the target named is T1, CD6 (UniProt P30203).
T1 sequence (looked up): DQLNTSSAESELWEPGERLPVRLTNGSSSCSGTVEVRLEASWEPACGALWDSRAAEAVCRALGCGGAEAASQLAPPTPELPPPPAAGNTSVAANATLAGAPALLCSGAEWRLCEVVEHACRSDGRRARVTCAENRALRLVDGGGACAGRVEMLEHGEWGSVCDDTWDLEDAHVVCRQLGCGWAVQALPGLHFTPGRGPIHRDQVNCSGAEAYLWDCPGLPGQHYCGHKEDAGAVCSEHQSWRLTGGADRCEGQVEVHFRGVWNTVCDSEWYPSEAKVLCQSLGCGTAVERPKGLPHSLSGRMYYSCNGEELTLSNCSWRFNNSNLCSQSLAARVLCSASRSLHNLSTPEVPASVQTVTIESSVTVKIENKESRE
Description: binding assay of FIG. 7 on CAR Tregs; method not described.

For 1 molecule, Kd results are on record in patent publication US20230076643A1.

B1: CD6 CAR (representative CD6 CAR, expressed on Treg) (protein, part only; not given: hinge, transmembrane and signalling domains, part only)
scFv, part: EVQLVESGGGLVKPGGSLKLSCAASGFKFSRYAMSWVRQAPGKRLEWVATISSGGSYIYYPDSVKGRFTISRDNVKNTLYLQMSSLRSEDTAMYYCARRDYDLDYFDSWGQGTLVTVSSGSTSGGGSGGGSGGGGSSDIQMTQSPSSLSASVGDRVTITCKASRDIRSYLTWYQQKPGKAPKTLIYYATSLADGVPSRFSGSGSGQDYSLTISSLESDDTATYYCLQHGESPFTFGSGTKLEIKRA
As a reminder, the Kd is the concentration at which binding is half-saturated. A higher Kd goes with a looser complex. As for B1, the Kd was determined as 0.05 µM.
